Starred links: 1 amine or outer side, 2 acyl side, 3 side chain; linkers in the order of their positions; H or OH if unused. Non-standard residues stand in square brackets, D forms with d. Groups on a side chain read outwards from the residue. No end group written: not given here. *: point of attachment. C16 diacid = O=C(O)CCCCCCCCCCCCCCC(=O)*; C15 diacid = O=C(O)CCCCCCCCCCCCCC(=O)*; γGlu = O=C(O)[C@H](CCC(=O)[*:2])N[*:1]; NMeY = CN[C@@H](Cc1ccc(O)cc1)C(=O)O; AEEA = NCCOCCOCC(=O)O; Aib = CC(C)(N)C(=O)O
Assays:
[1] = molecular target: full-length human GLP-1R with an N-terminal FLAG tag (human, UniProt P43220 24-463); assay: cell-based or functional assay
[2] = molecular target: T1, full-length human GIPR with an N-terminal FLAG tag (human, UniProt P48546 22-466); assay: cell-based or functional assay
T1 sequence (looked up): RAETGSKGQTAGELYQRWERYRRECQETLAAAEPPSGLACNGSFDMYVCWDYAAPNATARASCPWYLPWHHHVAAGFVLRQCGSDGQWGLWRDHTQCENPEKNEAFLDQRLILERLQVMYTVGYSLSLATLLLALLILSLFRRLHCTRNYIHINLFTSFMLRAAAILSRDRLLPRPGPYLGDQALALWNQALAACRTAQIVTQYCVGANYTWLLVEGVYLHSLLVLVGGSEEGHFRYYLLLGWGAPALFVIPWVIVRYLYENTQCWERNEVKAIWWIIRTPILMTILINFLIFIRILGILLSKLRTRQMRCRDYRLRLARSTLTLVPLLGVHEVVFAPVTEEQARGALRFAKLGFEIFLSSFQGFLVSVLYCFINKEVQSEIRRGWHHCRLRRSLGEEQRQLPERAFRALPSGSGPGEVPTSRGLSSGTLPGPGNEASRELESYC

| Binder | Human GLP1R cAMP HEK293T EC50 [1] | Human GIPR cAMP, HEK293T EC50 [2] |
| --- | --- | --- |
| [NMeY][Aib]EGTFISDYSIALDR[Aib]AQ[Aib]NFVNWLLAK([AEEA-AEEA-γGlu-γGlu-C15 diacid])RPSSGAPPPS-NH2 (N-terminus assumed; SMILES CC[C@H](C)[C@H](NC(=O)[C@H](CO)NC(=O)[C@H](Cc1ccc(O)cc1)NC(=O)[C@H](CC(=O)O)NC(=O)[C@H](CO)NC(=O)[C@@H](NC(=O)[C@H](Cc1ccccc1)NC(=O)[C@@H](NC(=O)CNC(=O)[C@H](CCC(=O)O)NC(=O)C(C)(C)NC(=O)[C@H](Cc1ccc(O)cc1)NC)[C@@H](C)O)[C@@H](C)CC)C(=O)N[C@@H](C)C(=O)N[C@@H](CC(C)C)C(=O)N[C@@H](CC(=O)O)C(=O)N[C@@H](CCCNC(=N)N)C(=O)NC(C)(C)C(=O)N[C@@H](C)C(=O)N[C@@H](CCC(N)=O)C(=O)NC(C)(C)C(=O)N[C@@H](CC(N)=O)C(=O)N[C@@H](Cc1ccccc1)C(=O)N[C@H](C(=O)N[C@@H](CC(N)=O)C(=O)N[C@@H](Cc1c[nH]c2ccccc12)C(=O)N[C@@H](CC(C)C)C(=O)N[C@@H](CC(C)C)C(=O)N[C@@H](C)C(=O)N[C@@H](CCCCNC(=O)COCCOCCNC(=O)COCCOCCNC(=O)CC[C@H](NC(=O)CC[C@H](NC(=O)CCCCCCCCCCCCCC(=O)O)C(=O)O)C(=O)O)C(=O)N[C@@H](CCCNC(=N)N)C(=O)N1CCC[C@H]1C(=O)N[C@@H](CO)C(=O)N[C@@H](CO)C(=O)NCC(=O)N[C@@H](C)C(=O)N1CCC[C@H]1C(=O)N1CCC[C@H]1C(=O)N1CCC[C@H]1C(=O)N[C@@H](CO)C(N)=O)C(C)C) [Compound 88] | 166 nM | 0.6 pM |
| [NMeY][Aib]EGTFISDYSIAK([G5-γGlu-C15 diacid])DR[Aib]AQ[Aib]DFVNWLLAQRPSSGAPPPS-NH2 [Compound 80] | 468 nM | 0.4 pM |
| [NMeY][Aib]EGTFISDYSIAK([G5-γGlu-γGlu-C15 diacid])DR[Aib]AQ[Aib]NFVNWLLAQSPSSGAPPPS-NH2 [Compound 81] | 1000 nM | 0.2 pM |
| [NMeY][Aib]EGTFISDYSIAKDR[Aib]AQ[Aib]NFVNWLLAQRPSSGAPPPS-NH2 (not fully specified (residue 14)) [Compound 77] | 331 nM | 0.2 pM |
| [NMeY][Aib]EGTFISDYSIALDR[Aib]AQ[Aib]K([AEEA-AEEA-γGlu-C15 diacid])FVNWLLAQSPSSGAPPPS-NH2 (N-terminus assumed; SMILES CC[C@H](C)[C@H](NC(=O)[C@H](CO)NC(=O)[C@H](Cc1ccc(O)cc1)NC(=O)[C@H](CC(=O)O)NC(=O)[C@H](CO)NC(=O)[C@@H](NC(=O)[C@H](Cc1ccccc1)NC(=O)[C@@H](NC(=O)CNC(=O)[C@H](CCC(=O)O)NC(=O)C(C)(C)NC(=O)[C@H](Cc1ccc(O)cc1)NC)[C@@H](C)O)[C@@H](C)CC)C(=O)N[C@@H](C)C(=O)N[C@@H](CC(C)C)C(=O)N[C@@H](CC(=O)O)C(=O)N[C@@H](CCCNC(=N)N)C(=O)NC(C)(C)C(=O)N[C@@H](C)C(=O)N[C@@H](CCC(N)=O)C(=O)NC(C)(C)C(=O)N[C@@H](CCCCNC(=O)COCCOCCNC(=O)COCCOCCNC(=O)CC[C@H](NC(=O)CCCCCCCCCCCCCC(=O)O)C(=O)O)C(=O)N[C@@H](Cc1ccccc1)C(=O)N[C@H](C(=O)N[C@@H](CC(N)=O)C(=O)N[C@@H](Cc1c[nH]c2ccccc12)C(=O)N[C@@H](CC(C)C)C(=O)N[C@@H](CC(C)C)C(=O)N[C@@H](C)C(=O)N[C@@H](CCC(N)=O)C(=O)N[C@@H](CO)C(=O)N1CCC[C@H]1C(=O)N[C@@H](CO)C(=O)N[C@@H](CO)C(=O)NCC(=O)N[C@@H](C)C(=O)N1CCC[C@H]1C(=O)N1CCC[C@H]1C(=O)N1CCC[C@H]1C(=O)N[C@@H](CO)C(N)=O)C(C)C) [Compound 92] | 74.1 nM | 1.3 pM |
| [NMeY][Aib]EGTFISDYSIALDRIK([AEEA-AEEA-γGlu-C16 diacid])Q[Aib]NFVNWLLAQK [Compound 8] | 100 nM | 0.1 pM |
| [NMeY][Aib]EGTFISDYSIAK([G4-γGlu-C15 diacid])DR[Aib]AQ[Aib]NFVNWLLAQSPSSGAPPPS-NH2 [Compound 78] | 112 nM | 0.3 pM |
| [NMeY][Aib]EGTFISDYSIALDR[Aib]AQ[Aib]NFVNWLLAQK([AEEA-AEEA-γGlu-γGlu-C15 diacid])-NH2 (N-terminus assumed; SMILES CC[C@H](C)[C@H](NC(=O)[C@H](CO)NC(=O)[C@H](Cc1ccc(O)cc1)NC(=O)[C@H](CC(=O)O)NC(=O)[C@H](CO)NC(=O)[C@@H](NC(=O)[C@H](Cc1ccccc1)NC(=O)[C@@H](NC(=O)CNC(=O)[C@H](CCC(=O)O)NC(=O)C(C)(C)NC(=O)[C@H](Cc1ccc(O)cc1)NC)[C@@H](C)O)[C@@H](C)CC)C(=O)N[C@@H](C)C(=O)N[C@@H](CC(C)C)C(=O)N[C@@H](CC(=O)O)C(=O)N[C@@H](CCCNC(=N)N)C(=O)NC(C)(C)C(=O)N[C@@H](C)C(=O)N[C@@H](CCC(N)=O)C(=O)NC(C)(C)C(=O)N[C@@H](CC(N)=O)C(=O)N[C@@H](Cc1ccccc1)C(=O)N[C@H](C(=O)N[C@@H](CC(N)=O)C(=O)N[C@@H](Cc1c[nH]c2ccccc12)C(=O)N[C@@H](CC(C)C)C(=O)N[C@@H](CC(C)C)C(=O)N[C@@H](C)C(=O)N[C@@H](CCC(N)=O)C(=O)N[C@@H](CCCCNC(=O)COCCOCCNC(=O)COCCOCCNC(=O)CC[C@H](NC(=O)CC[C@H](NC(=O)CCCCCCCCCCCCCC(=O)O)C(=O)O)C(=O)O)C(N)=O)C(C)C) [Compound 91] | 126 nM | 0.8 pM |
| [NMeY][Aib]EGTFISDYSIAK([G5-γGlu-C15 diacid])DR[Aib]AQ[Aib]NFVNWLLAQSPSSGAPPPS-NH2 [Compound 82] | 295 nM | 0.3 pM |
| [NMeY][Aib]EGTFISDYSIALDR[Aib]AQ[Aib]KFVNWLLAQS-NH2 (not fully specified (residue 21)) [Compound 85] | 63.1 nM | 0.9 pM |
| [NMeY][Aib]EGTFISDYSIALDR[Aib]AQ[Aib]K([AEEA-AEEA-γGlu-γGlu-C15 diacid])FVNWLLAQSPSSGAPPPS-NH2 (N-terminus assumed; SMILES CC[C@H](C)[C@H](NC(=O)[C@H](CO)NC(=O)[C@H](Cc1ccc(O)cc1)NC(=O)[C@H](CC(=O)O)NC(=O)[C@H](CO)NC(=O)[C@@H](NC(=O)[C@H](Cc1ccccc1)NC(=O)[C@@H](NC(=O)CNC(=O)[C@H](CCC(=O)O)NC(=O)C(C)(C)NC(=O)[C@H](Cc1ccc(O)cc1)NC)[C@@H](C)O)[C@@H](C)CC)C(=O)N[C@@H](C)C(=O)N[C@@H](CC(C)C)C(=O)N[C@@H](CC(=O)O)C(=O)N[C@@H](CCCNC(=N)N)C(=O)NC(C)(C)C(=O)N[C@@H](C)C(=O)N[C@@H](CCC(N)=O)C(=O)NC(C)(C)C(=O)N[C@@H](CCCCNC(=O)COCCOCCNC(=O)COCCOCCNC(=O)CC[C@H](NC(=O)CC[C@H](NC(=O)CCCCCCCCCCCCCC(=O)O)C(=O)O)C(=O)O)C(=O)N[C@@H](Cc1ccccc1)C(=O)N[C@H](C(=O)N[C@@H](CC(N)=O)C(=O)N[C@@H](Cc1c[nH]c2ccccc12)C(=O)N[C@@H](CC(C)C)C(=O)N[C@@H](CC(C)C)C(=O)N[C@@H](C)C(=O)N[C@@H](CCC(N)=O)C(=O)N[C@@H](CO)C(=O)N1CCC[C@H]1C(=O)N[C@@H](CO)C(=O)N[C@@H](CO)C(=O)NCC(=O)N[C@@H](C)C(=O)N1CCC[C@H]1C(=O)N1CCC[C@H]1C(=O)N1CCC[C@H]1C(=O)N[C@@H](CO)C(N)=O)C(C)C) [Compound 93] | 490 nM | 0.2 pM |
| [NMeY]SEGTFISDYSIAK([2OEG-γGlu-C16 diacid])DRIHQ[Aib]NFVNWLLAQK (not fully specified (N-terminus)) [Compound 7] | 257 nM | 1.6 pM |

Source: US20220227830A1, “QD DOSING OF GIP RECEPTOR AGONIST PEPTIDE COMPOUNDS AND USES THEREOF” (Takeda Pharmaceutical Company Limited, priority 2020, published 2022)
